In the supplement of paper PMC5998384:

Key:
[1] = test system: HeLa Kyoto; assay: melting temperature (median over replicates), in situ; higher = more thermally stable
[2] = test system: HeLa Kyoto; assay: solubility in G1/S (NP-40 vs SDS abundance) (log2 ratio); higher = more soluble; details: cell cycle stage: G1/S
[3] = test system: HeLa Kyoto; assay: thermal stability score vs G1/S (z-score of summed log2 fold changes over temperatures); higher = more thermally stable than in G1/S
[4] = test system: HeLa Kyoto; assay: solubility change mitosis vs G1/S (difference of NP-40 vs SDS log2 ratios) (log2 ratio difference); higher = more soluble in mitosis
[5] = cell cycle stage: early G1 (4.5 h after nocodazole release)
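For melting temperature (median over replicates), in situ in this document: HeLa Kyoto cells synchronized by double thymidine or nocodazole block, proteins quantified by TMT10plex mass spectrometry, three independent biological replicates.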
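For solubility change mitosis vs G1/S (difference of NP-40 vs SDS log2 ratios) in this document: synchronized HeLa Kyoto cells (double thymidine block for G1/S, nocodazole release for mitosis), protein amounts in NP-40 versus SDS lysates quantified by mass spectrometry, three biological replicates.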
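For solubility in G1/S (NP-40 vs SDS abundance) in this document: HeLa Kyoto cells arrested at G1/S by double thymidine block, proteins quantified by TMT10plex mass spectrometry in mild NP-40 versus SDS extracts, three biological replicates.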
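For thermal stability score vs G1/S (z-score of summed log2 fold changes over temperatures) in this document: synchronized HeLa Kyoto cells, proteins quantified by TMT10plex mass spectrometry, three biological replicates, mitosis taken 0.5 h after nocodazole release, G1/S directly after double thymidine block.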

Row | Substance | melting temperature ([1]; cell cycle stage: G1/S) [°C] | melting temperature ([1]; cell cycle stage: mitosis) [°C] | solubility in G1/S (log2) [2] | thermal stability score [3, 5] | thermal stability score ([3]; cell cycle stage: mitosis) | solubility change mitosis (log2) [4]
1 | MAACEGRRSGALGSSQSDFLTPPVGGAPWAVATTVVMYPPPPPPPHRDFISVTLSFGENYDNSKSWRRRSCWRKWKQLSRLQRNMILFLLAFLLFCGLLFYINLADHWKALAFRLEEEQKMRPEIAGLKPANPPVLPAPQKADTDPENLPEISSQKTQRHIQRGPPHLQIRPPSQDLKDGTQEEATKRQEAPVDPRPEGDPQRTVISWRGAVIEPEQGTELPSRRAEVPTKPPLPPARTQGTPVHLNYRQKGVIDVFLHAWKGYRKFAWGHDELKPVSRSFSEWFGLGLTLIDALDTMWILGLRKEFEEARKWVSKKLHFEKDVDVNLFESTIRILGGLLSAYHLSGDSLFLRKAEDFGNRLMPAFRTPSKIPYSDVNIGTGVAHPPRWTSDSTVAEVTSIQLEFRELSRLTGDKKFQEAVEKVTQHIHGLSGKKDGLVPMFINTHSGLFTHLGVFTLGARADSYYEYLLKQWIQGGKQETQLLEDYVEAIEGVRTHLLRHSEPSKLTFVGELAHGRFSAKMDHLVCFLPGTLALGVYHGLPASHMELAQELMETCYQMNRQMETGLSPEIVHFNLYPQPGRRDVEVKPADRHNLLRPETVESLFYLYRVTGDRKYQDWGWEILQSFSRFTRVPSGGYSSINNVQDPQKPEPRDKMESFFLGETLKYLFLLFSDDPNLLSLDAYVFNTEAHPLPIWTPA [MAN1B1] | 51.6 | 52.1 | 0.19 | 0.594 | 0.346 | -0.189
2 | MTDLVAVWDVALSDGVHKIEFEHGTTSGKRVVYVDGKEEIRKEWMFKLVGKETFYVGAAKTKATINIDAISGFAYEYTLEINGKSLKKYMEDRSKTTNTWVLHMDGENFRIVLEKDAMDVWCNGKKLETAGEFVDDGTETHFSIGNHDCYIKAVSSGKRKEGIIHTLIVDNREIPEIAS [FAIM] | 50.8 | 49.1 | -0.00968 | 0.651 | 1.16 | -0.25
3 | MVAGSDAGRALGVLSVVCLLHCFGFISCFSQQIYGVVYGNVTFHVPSNVPLKEVLWKKQKDKVAELENSEFRAFSSFKNRVYLDTVSGSLTIYNLTSSDEDEYEMESPNITDTMKFFLYVLESLPSPTLTCALTNGSIEVQCMIPEHYNSHRGLIMYSWDCPMEQCKRNSTSIYFKMENDLPQKIQCTLSNPLFNTTSSIILTTCIPSSGHSRHRYALIPIPLAVITTCIVLYMNGILKCDRKPDRTNSN [CD58] | 55.3 | – | -0.813 | -0.387 | -1.23 | 0.319
4 | MASLEVSRSPRRSRRELEVRSPRQNKYSVLLPTYNERENLPLIVWLLVKSFSESGINYEIIIIDDGSPDGTRDVAEQLEKIYGSDRILLRPREKKLGLGTAYIHGMKHATGNYIIIMDADLSHHPKFIPEFIRKQKEGNFDIVSGTRYKGNGGVYGWDLKRKIISRGANFLTQILLRPGASDLTGSFRLYRKEVLEKLIEKCVSKGYVFQMEMIVRARQLNYTIGEVPISFVDRVYGESKLGGNEIVSFLKGLLTLFATT [DPM1] | 53.2 | 52.7 | -0.0525 | -2.69 | 1.91 | 0.0355
5 | MCGIWALFGSDDCLSVQCLSAMKIAHRGPDAFRFENVNGYTNCCFGFHRLAVVDPLFGMQPIRVKKYPYLWLCYNGEIYNHKKMQQHFEFEYQTKVDGEIILHLYDKGGIEQTICMLDGVFAFVLLDTANKKVFLGRDTYGVRPLFKAMTEDGFLAVCSEAKGLVTLKHSATPFLKVEPFLPGHYEVLDLKPNGKVASVEMVKYHHCRDVPLHALYDNVEKLFPGFEIETVKNNLRILFNNAVKKRLMTDRRIGCLLSGGLDSSLVAATLLKQLKEAQVQYPLQTFAIGMEDSPDLLAARKVADHIGSEHYEVLFNSEEGIQALDEVIFSLETYDITTVRASVGMYLISKYIRKNTDSVVIFSGEGSDELTQGYIYFHKAPSPEKAEEESERLLRELYLFDVLRADRTTAAHGLELRVPFLDHRFSSYYLSLPPEMRIPKNGIEKHLLRETFEDSNLIPKEILWRPKEAFSDGITSVKNSWFKILQEYVEHQVDDAMMANAAQKFPFNTPKTKEGYYYRQVFERHYPGRADWLSHYWMPKWINATDPSARTLTHYKSAVKA [ASNS] | 52.8 | 53.1 | -0.142 | 2.34 | -0.215 | -0.21
6 | MYO10 | 48.3 | 49.4 | -0.269 | 0.691 | 0.867 | -0.176
7 | MEESPLSRAPSRGGVNFLNVARTYIPNTKVECHYTLPPGTMPSASDWIGIFKVEAACVRDYHTFVWSSVPESTTDGSPIHTSVQFQASYLPKPGAQLYQFRYVNRQGQVCGQSPPFQFREPRPMDELVTLEEADGGSDILLVVPKATVLQNQLDESQQERNDLMQLKLQLEGQVTELRSRVQELERALATARQEHTELMEQYKGISRSHGEITEERDILSRQQGDHVARILELEDDIQTISEKVLTKEVELDRLRDTVKALTREQEKLLGQLKEVQADKEQSEAELQVAQQENHHLNLDLKEAKSWQEEQSAQAQRLKDKVAQMKDTLGQAQQRVAELEPLKEQLRGAQELAASSQQKATLLGEELASAAAARDRTIAELHRSRLEVAEVNGRLAELGLHLKEEKCQWSKERAGLLQSVEAEKDKILKLSAEILRLEKAVQEERTQNQVFKTELAREKDSSLVQLSESKRELTELRSALRVLQKEKEQLQEEKQELLEYMRKLEARLEKVADEKWNEDATTEDEEAAVGLSCPAALTDSEDESPEDMRLPPYGLCERGDPGSSPAGPREASPLVVISQPAPISPHLSGPAEDSSSDSEAEDEKSVLMAAVQSGGEEANLLLPELGSAFYDMASGFTVGTLSETSTGGPATPTWKECPICKERFPAESDKDALEDHMDGHFFFSTQDPFTFE [CALCOCO1] | 50.2 | 50.3 | 0.13 | 0.0224 | 0.762 | -0.128
8 | MTSSRLWFSLLLAAAFAGRATALWPWPQNFQTSDQRYVLYPNNFQFQYDVSSAAQPGCSVLDEAFQRYRDLLFGSGSWPRPYLTGKRHTLEKNVLVVSVVTPGCNQLPTLESVENYTLTINDDQCLLLSETVWGALRGLETFSQLVWKSAEGTFFINKTEIEDFPRFPHRGLLLDTSRHYLPLSSILDTLDVMAYNKLNVFHWHLVDDPSFPYESFTFPELMRKGSYNPVTHIYTAQDVKEVIEYARLRGIRVLAEFDTPGHTLSWGPGIPGLLTPCYSGSEPSGTFGPVNPSLNNTYEFMSTFFLEVSSVFPDFYLHLGGDEVDFTCWKSNPEIQDFMRKKGFGEDFKQLESFYIQTLLDIVSSYGKGYVVWQEVFDNKVKIQPDTIIQVWREDIPVNYMKELELVTKAGFRALLSAPWYLNRISYGPDWKDFYIVEPLAFEGTPEQKALVIGGEACMWGEYVDNTNLVPRLWPRAGAVAERLWSNKLTSDLTFAYERLSHFRCELLRRGVQAQPLNVGFCEQEFEQT [HEXA] | 56.7 | 56.1 | 0.295 | 0.922 | 0.624 | -0.164
9 | MSADGAEADGSTQVTVEEPVQQPSVVDRVASMPLISSTCDMVSAAYASTKESYPHIKTVCDAAEKGVRTLTAAAVSGAQPILSKLEPQIASASEYAHRGLDKLEENLPILQQPTEKVLADTKELVSSKVSGAQEMVSSAKDTVATQLSEAVDATRGAVQSGVDKTKSVVTGGVQSVMGSRLGQMVLSGVDTVLGKSEEWADNHLPLTDAELARIATSLDGFDVASVQQQRQEQSYFVRLGSLSERLRQHAYEHSLGKLRATKQRAQEALLQLSQVLSLMETVKQGVDQKLVEGQEKLHQMWLSWNQKQLQGPEKEPPKPEQVESRALTMFRDIAQQLQATCTSLGSSIQGLPTNVKDQVQQARRQVEDLQATFSSIHSFQDLSSSILAQSRERVASAREALDHMVEYVAQNTPVTWLVGPFAPGITEKAPEEKK [PLIN3] | 56.7 | 57.3 | 0.715 | -0.144 | 0.126 | 0.0467
10 | MICLVLTIFANLFPAACTGAHERTFLAVKPDGVQRRLVGEIVRRFERKGFKLVALKLVQASEELLREHYAELRERPFYGRLVKYMASGPVVAMVWQGLDVVRTSRALIGATNPADAPPGTIRGDFCIEVGKNLIHGSDSVESARREIALWFRADELLCWEDSAGHWLYE [NME3] | 55.7 | 56.8 | -0.213 | -1.81 | -2.22 | -0.0854
11 | MDVAESPERDPHSPEDEEQPQGLSDDDILRDSGSDQDLDGAGVRASDLEDEESAARGPSQEEEDNHSDEEDRASEPKSQDQDSEVNELSRGPTSSPCEEEGDEGEEDRTSDLRDEASSVTRELDEHELDYDEEVPEEPAPAVQEDEAEKAGAEDDEEKGEGTPREEGKAGVQSVGEKESLEAAKEKKKEDDDGEIDDGEIDDDDLEEGEVKDPSDRKVRPRPTCRFFMKGNCTWGMNCRFIHPGVNDKGNYSLITKADPFPPNGAPPLGPHPLMPANPWGGPVVDEILPPPPPEPPTESAWERGLRHAKEVLKKATIRKEQEPDFEEKRFTVTIGEDEREFDKENEVFRDWNSRIPRDVRDTVLEPYADPYYDYEIERFWRGGQYENFRVQYTETEPYHNYRERERERERENRQRERERERERDRERERRQRERERERERERDKERQRRKEEWERERAKRDEKDRQHRDRDREKEREKEKGKPKPRSPQPPSRQAEPPKKEAATTGPQVKRADEWKDPWRRSKSPKKKLGVSVSPSRARRRRKTSASSASASNSSRSSSRSSSYSGSGSSRSRSRSSSYSSYSSRSSRHSSFSGSRSRSRSFSSSPSPSPTPSPHRPSIRTKGEPAPPPGKAGEKSVKKPAPPPAPPQATKTTAPVPEPTKPGDPREARRKERPARTPPRRRTLSGSGSGSGSSYSGSSSRSRSLSVSSVSSVSSATSSSSSAHSVDSEDMYADLASPVSSASSRSPAPAQTRKEKGKSKKEDGVKEEKRKRDSSTQPPKSAKPPAGGKSSQQPSTPQQAPPGQPQQGTFVAHKEIKLTLLNKAADKGSRKRYEPSDKDRQSPPPAKRPNTSPDRGSRDRKSGGRLGSPKPERQRGQNSKAPAAPADRKRQLSPQSKSSSKVTSVPGKASDPGAASTKSGKASTLSRREELLKQLKAVEDAIARKRAKIPGKA [ZC3H18] | 48.7 | 51.3 | -0.653 | 7.23 | 11.9 | 0.144
12 | MFVARSIAADHKDLIHDVSFDFHGRRMATCSSDQSVKVWDKSESGDWHCTASWKTHSGSVWRVTWAHPEFGQVLASCSFDRTAAVWEEIVGESNDKLRGQSHWVKRTTLVDSRTSVTDVKFAPKHMGLMLATCSADGIVRIYEAPDVMNLSQWSLQHEISCKLSCSCISWNPSSSRAHSPMIAVGSDDSSPNAMAKVQIFEYNENTRKYAKAETLMTVTDPVHDIAFAPNLGRSFHILAIATKDVRIFTLKPVRKELTSSGGPTKFEIHIVAQFDNHNSQVWRVSWNITGTVLASSGDDGCVRLWKANYMDNWKCTGILKGNGSPVNGSSQQGTSNPSLGSTIPSLQNSLNGSSAGRKHS [SEH1L] | 54.8 | 51.6 | -0.79 | -3.19 | -4.18 | 0.295
